These results are taken from patent US20100086538A1 (UCB, published 2010).

Positions count from the first letter of the chain named. Names and notes keep the numbering of the source. Values joined by “and” are separate entries in the source; they are usually repeats but may differ in a detail not shown here. Equal values may be shown once.

Broadly, the Kd is the concentration at which binding is half-saturated. The term koff denotes the first-order rate constant of dissociation. As usually defined, the kon is a measure of how fast the partners come together.

Experiment [1] has as its target T1, recombinant human IL-17 (R & D systems) (human, UniProt Q16552 20-155, limits assumed).
T1 sequence (looked up): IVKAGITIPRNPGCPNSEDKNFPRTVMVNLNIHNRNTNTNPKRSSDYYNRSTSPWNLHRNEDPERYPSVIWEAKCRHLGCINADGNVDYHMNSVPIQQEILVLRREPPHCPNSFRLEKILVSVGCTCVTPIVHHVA
The experiment can be described thus: cell-based or functional assay.

Experiment [2] addresses T2, mammalian cell (CHO) derived human IL-17 (human, UniProt Q16552 24-155).
T2 sequence (looked up): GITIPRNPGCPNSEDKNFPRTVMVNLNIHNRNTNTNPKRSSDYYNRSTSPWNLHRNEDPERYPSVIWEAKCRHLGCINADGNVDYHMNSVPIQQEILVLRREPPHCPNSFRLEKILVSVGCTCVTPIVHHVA
The experiment can be described thus: cell-based or functional assay.

Experiment [3] has as its target T1, recombinant human IL-17 (R & D systems). Briefly: BIAcore 3000, antibody captured by anti-human IgG Fc, IL-17 as analyte. How it is done: (§1) BIA (Biamolecular Interaction Analysis) was performed using a BIAcore 3000 (BIAcore AB). Affinipure F(ab′)₂ Fragment goat anti-human IgG, Fc (Jackson ImmunoResearch) was immobilised on a CM5 Sensor Chip via amine coupling chemistry to a capture level of ≈8000 response units (RUs). HBS-EP buffer (10 mM HEPES pH 7.4, 0.15 M NaCl, 3 mM EDTA, 0.005% Surfactant P20, BIAcore AB) was used as the running buffer with a flow rate of 10 μL/min. A 10 μL injection of CA028_{—}497.g2 was used for capture by the immobilised anti-human IgG-F(ab)₂. IL-17 was titrated over the captured CA028_{—}497.g2 at various concentrations at a flow rate of 30 μL/min. The surface was regenerated by a 30 μL injection of 40 mM HCl, followed by a 10 μL injection of 5 mM NaOH.
(§2) Background subtraction binding curves were analysed using the BIAevaluation software (version 3.2) following standard procedures. Kinetic parameters were determined from the fitting algorithm.
(§3) The concentrations of IL-17 from different non-human primate (NHP) species expressed transiently were estimated relative to human IL-17 and these concentrations were then used to determine the affinities of the IL-17s. The affinity was measured at IL-17 concentrations at or below 25 nM. […] The concentration of transient cynomolgus IL-17 and transient marmoset IL-17 was estimated based on equivalent human IL-17 binding.
A general note: In SPR one partner is held on a chip, and binding of the other changes the refractive index at the surface.

Experiment [4] addresses T3, cynomolgus monkey IL-17 (expressed transiently) (cynomolgus monkey, UniProt A0A2K5TTB0 24-155).
T3 construct: also called transient cynomolgus IL-17
T3 sequence: T2 sequence (looked up) with T3A, P8S, N34S, I77V, N78K, P104R
Described as above. How it is done:
as §1, §2, §3

Experiment [5] concerns the target T4, marmoset IL-17 (expressed transiently) (marmoset, UniProt A0ACM8QD00 24-153).
T4 construct: also called marmoset 06073130c; transient marmoset IL-17
T4 sequence: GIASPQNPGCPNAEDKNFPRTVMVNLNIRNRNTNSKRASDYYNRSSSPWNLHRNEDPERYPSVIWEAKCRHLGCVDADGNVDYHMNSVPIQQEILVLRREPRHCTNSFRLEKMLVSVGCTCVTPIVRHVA
Described as above. How it is done: as §1, §2, §3

In experiment [6] the target is T3, cynomolgus monkey IL-17 (expressed …). Briefly: BIAcore 3000, antibody captured by anti-human IgG Fc, IL-17 as analyte; analyte concentration estimated. How it is done: as §1, §2, §3
Experiment [7] has as its target T4, marmoset IL-17 (expressed transiently). The experiment is described as above. How it is done: as §1, §2, §3
In experiment [8] the target is T3, cynomolgus monkey IL-17 (expressed …). The experiment can be described thus: BIAcore 3000, antibody captured by anti-human IgG Fc, IL-17 as analyte; analyte concentration estimated; transient cynomolgus IL-17, concentration estimated. On the procedure: as §1, §2, §3

B1: antibody CA028-497.g2 (antibody, human IgG4 S228P, kappa, V domains shown)
VH: EVQLVESGGGLVKPGGSLRLSCAASGVIFSDYYMAWVRQAPGKGLEWVASINFNADISYYRESVKGRFTISRDDSKNTLYLQMNSLKTEDTAVYYCTTDANRQNYDWFAYWGQGTLVTVSS
VL: AIQLTQSPSSLSASVGDRVTITCKASESVSSSMYSYMHWYQQKPGKAPKLLIYRASNLESGVPSRFSGSGSGTDFTLTISSLQPEDFATYYCQQSWTAPRTFGQGTKVEIKR
notes: Humanised IgG4 (S241P) kappa antibody made in CHO cells; also called CA048-497.g2; CA048 497.g2
Regarding B1, the “IC50, inhibition of IL-17 induced IL-6 production in Hela cells” value in experiment [1] is 51 ng/mL and 0.34 nM; in experiment [2] it was 103 ng/mL and 0.7 nM. The Kd was 6.28 pM and 6.3 pM in experiment [3]; 10.7 pM in experiment [6]; 12.9 pM in experiment [7]. The koff in experiment [3] amounted to 7.38e-06 s⁻¹; in experiment [4], 1.68e-05 s⁻¹; in experiment [5] it was 1.46e-05 s⁻¹. In addition, the kon in experiment [3] was 1.86e+06 M⁻¹ s⁻¹; in experiment [7], 1.13e+06 M⁻¹ s⁻¹; in experiment [8], 1.57e+06 M⁻¹ s⁻¹.
